Results from paper PMC10302205, “Saccharomyces cerevisiae Δ9-desaturase Ole1 forms a supercomplex with Slc1 and Dga1” (The Journal of Biological Chemistry, 2023).

B1: NubG-Dga1 (full-length NubG-Dga1 fusion) [S. cerevisiae] / Ole1-Myc-Cub-LexA-VP16 [S. cerevisiae] (parent complex)
chain 1: MSGTFNDIRRRKKEEGSPTAGITERHENKSLSSIDKREQTLKPQLESCCPLATPFERRLQTLAVAWHTSSFVLFSIFTLFAISTPALWVLAIPYMIYFFFDRSPATGEVVNRYSLRFRSLPIWKWYCDYFPISLIKTVNLKPTFTLSKNKRVNEKNYKIRLWPTKYSINLKSNSTIDYRNQECTGPTYLFGYHPHGIGALGAFGAFATEGCNYSKIFPGIPISLMTLVTQFHIPLYRDYLLALGISSVSRKNALRTLSKNQSICIVVGGARESLLSSTNGTQLILNKRKGFIKLAIQTGNINLVPVFAFGEVDCYNVLSTKKDSVLGKMQLWFKENFGFTIPIFYARGLFNYDFGLLPFRAPINVVVGRPIYVEKKITNPPDDVVNHFHDLYIAELKRLYYENREKYGVPDAELKIVG
chain 2: MPTSGTTIELIDDQFPKDDSASSGIVDEVDLTEANILATGLNKKAPRIVNGFGSLMGSKEMVSVEFDKKGNEKKSNLDRLLEKDNQEKEEAKTKIHISEQPWTLNNWHQHLNWLNMVLVCGMPMIGWYFALSGKVPLHLNVFLFSVFYYAVGGVSITAGYHRLWSHRSYSAHWPLRLFYAIFGCASVEGSAKWWGHSHRIHHRYTDTLRDPYDARRGLWYSHMGWMLLKPNPKYKARADITDMTDDWTIRFQHRHYILLMLLTAFVIPTLICGYFFNDYMGGLIYAGFIRVFVIQQATFCINSLAHYIGTQPFDDRRTPRDNWITAIVTFGEGYHNFHHEFPTDYRNAIKWYQYDPTKVIIYLTSLVGLAYDLKKFSQNAIEEALIQQEQKKINKKKAKINWGPVLTDLPMWDKQTFLAKSKENKGLVIISGIVHDVSGYISEHPGGETLIKTALGKDATKAFSGGVYRHSNAAQNVLADMRVAVIKESKNSAIRMASKRGEIYETGKFF

Variants of: B1
Assay: integrated membrane yeast two-hybrid assay (β-galactosidase reporter); n = 3 biological replicates; parent: 1; read off a plot

Point of comparison: chain 1 R404A, chain 1 E405A, chain 1 K406A, ratio to parent ~0.84. Against it:
- chain 1 K397A, chain 1 R398A, chain 1 D411A, chain 1 E413A, chain 1 K415A — lower, ~0.2
